From patent US7097972

Target: purified poly(ADP-ribose) polymerase (PARP)

B1: purified recombinant human ICE (protein)
chain 1: NPAMPTSSGSEGNVKLCSLEEAQRIWKQKSAEIYPIMDKSSRTRLALIICNEEFDSIPRRTGAEVDITGMTMLLQNLGYSVDVKKNLTASDMTTELEAFAHRPEHKTSDSTFLVFMSHGIREGICGKKHSEQVPDILQLNAIFNMLNTKNCPSLKDKPKVIIIQACRGDSPGVVWFKD
chain 2: AIKKAHIEKDFIAFCSSTPDNVSWRHPTMGSVFIGRLIEHMQEYACSCDVEEIFRKVRFSFEQPDGRAQMPTTERVTLTRCFYLFPGH
  proteolytic cleavage of purified PARP, anti-PARP immunoblot: Purified ICE did not cleave PARP
